Measured values taken from paper PMC5110560, “A Wheat Cinnamyl Alcohol Dehydrogenase TaCAD12 Contributes to Host Resistance to the Sharp Eyespot Disease” (Frontiers in Plant Science, 2016).

What was measured:
[1] = substrate: COc1cc(/C=C/C=O)ccc1O; experiment: purified protein; format: biochemical, Triticum aestivum; settings: NADPH as co-substrate; GST fusion
[2] = substrate: COc1cc(/C=C/C=O)cc(OC)c1O; experiment: purified protein; format: biochemical, Triticum aestivum; settings: NADPH as co-substrate; GST fusion

B1: TaCAD12 (GST-TaCAD12) (Triticum aestivum) (protein)
chain: MAPTATAAEQSQQHTKKAVGLAALDASGHLSPLAITRRSTGDDDVVIKILYCGICHSDLHSIKNDWKNAKYPMIPGHEIAGEVTEVGKNVTKFKAGDRVGVGCMVNSCQSCESCDKGFENHCPGMIFTYNSVDRDGTRTHGGYSSMVVVHERFVVRFPDAMPLDKGAPLLCAGITVYSPMKYHGLNAPGMHLGVLGLGGLGHVAVKFGKAFGMKVTVISSSPGKKQEALERLGADAFVVSKDADEMKATMSTMDGIINTVSANVPMAPLFGLLKPNGKMIMVGLPEKPIEVPPFALVARNKTLAGSCIGGMRDTQEMLDLAAKHGVTADIEVIGAEYVNTAMERLAKADVRYRFVIDIANTLDKAAAATTE
notes: N-terminal GST fusion (pGEX-4T-1), expressed in E. coli BL21, purified; tag kept
Question: How did the Km [1] turn out when B1 was run?
Answer: 28.91 ± 3.67 µM

Question: And the Km [2]?
Answer: 34.18 ± 5.56 µM
